Measurements as given in paper PMC4783296, “Structural basis underlying CAC RNA recognition by the RRM domain of dimeric RNA-binding protein RBPMS”.

Legend:
RBPMS RRM WT = RBPMS RRM WT (human, UniProt Q93062 14-111); assay: ITC; approaching 2:1 RRM:RNA; ITC: 20 mM Tris-HCl pH 7.5, 100 mM NaCl, 25 C; 0.03-0.05 mM protein in cell, 0.26-0.5 mM RNA in syringe, single-site model; conditions: protein: recombinant; tags: 6His-SUMO removed with Ulp1; chain copies: 2; single strand
RBPMS RRM E97A/K100A = RBPMS RRM E97A/K100A (human, UniProt Q93062 14-111, E97A;K100A); assay: ITC; Kd printed only in figure; ITC: 20 mM Tris-HCl pH 7.5, 100 mM NaCl, 25 C; 0.03-0.05 mM protein in cell, 0.26-0.5 mM RNA in syringe, single-site model; conditions: protein: recombinant; tags: 6His-SUMO removed with Ulp1; single strand
Chain of RBPMS RRM E97A/K100A (Q93062 14-111 E97A/K100A): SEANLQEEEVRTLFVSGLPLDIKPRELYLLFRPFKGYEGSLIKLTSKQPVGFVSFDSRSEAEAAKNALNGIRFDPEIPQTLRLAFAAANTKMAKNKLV

RBPMS RRM F27A = RBPMS RRM F27A (human, UniProt Q93062 14-111, F27A); assay: ITC; ITC: 20 mM Tris-HCl pH 7.5, 100 mM NaCl, 25 C; 0.03-0.05 mM protein in cell, 0.26-0.5 mM RNA in syringe, single-site model; conditions: protein: recombinant; tags: 6His-SUMO removed with Ulp1; single strand
Chain of RBPMS RRM F27A (Q93062 14-111 F27A): as the sequence (Q93062 14-111 E97A/K100A) above, with F14A, A84E, A87K counted along it

RBPMS RRM K100E = RBPMS RRM K100E (human, UniProt Q93062 14-111, K100E); assay: as above; conditions: protein: recombinant; tags: 6His-SUMO removed with Ulp1; single strand
Chain of RBPMS RRM K100E (Q93062 14-111 K100E): as the sequence (Q93062 14-111 E97A/K100A) above, with A84E, A87E counted along it

RBPMS RRM F65A = RBPMS RRM F65A (human, UniProt Q93062 14-111, F65A); assay: as above; conditions: protein: recombinant; tags: 6His-SUMO removed with Ulp1; single strand
Chain of RBPMS RRM F65A (Q93062 14-111 F65A): as the sequence (Q93062 14-111 E97A/K100A) above, with F52A, A84E, A87K counted along it

RBPMS RRM T103A/K104A = RBPMS RRM T103A/K104A (human, UniProt Q93062 14-111, T103A;K104A); assay: as above; conditions: protein: recombinant; tags: 6His-SUMO removed with Ulp1; single strand
Chain of RBPMS RRM T103A/K104A (Q93062 14-111 T103A/K104A): as the sequence (Q93062 14-111 E97A/K100A) above, with A84E, A87K, T90A, K91A counted along it

Chain of RBPMS RRM WT (Q93062 14-111): as the sequence (Q93062 14-111 E97A/K100A) above, with A84E, A87K counted along it

B1: ETF1 17-nt RNA (ssRNA)
RNA: GCACUUUCAACUUCACU
With B1 the Kd (RBPMS RRM WT) was 900 nM, the binding signal (RBPMS RRM E97A/K100A) was ~10 fold reduced affinity vs WT and the binding result (RBPMS RRM F27A) was “no binding”. B1: no binding (RBPMS RRM K100E); no binding (RBPMS RRM F65A); no binding (RBPMS RRM T103A/K104A).
